The term Kd denotes a measure of binding affinity in units of concentration. A lower Kd goes with higher affinity.

The test system of the data set is SinR (Bacillus subtilis). The data set can be described thus: EMSA. The settings on record: EMSA: 15 mM Tris-Cl, 4 mM MOPS-KOH, 15 mM KCl, 50 mM NaCl, 0.8 mM MgCl2, 0.6 mM DTT, 12.5% glycerol, pH 7.8, 1 ug poly(dI-dC) in 16 ul, 20 fmol probe, 28 C ….

In turn, Fm0 PkinB(-39/+104) showed a Kd (SinR-2 site, binding stated (also given as >100 nM)) greater than 400 nM.
For the substance PkinB(-31/+104), under “SinR-2 site, binding stated”, the Kd is greater than 100 nM.
Consider PkinB(-55/+10) WT, for which, for the setting “SinR-2 site, binding stated”, the Kd was greater than 100 nM.
PkinB(-75/+10) G-45A returned a binding signal (fold lower affinity) (SinR-1 site (upper band)) of 2.
PkinB(-75/+10) delta5 G-45A showed a Kd (SinR-2 site (SinR-1 not bound)) of 10 nM.
For PkinB(-75/-7) delta5 G-45A, where the note is “SinR-2 site”, the equilibrium dissociation constant (Kd) is 10 nM.
On to Rm0 PkinB(-124/-38), for which the Kd (SinR-1 site) amounted to 50 nM.

For the origin of these results see publication PMC5733473.
